Experimental data reported in patent US6908994 (TEXAS A AND M UNIVERSITY SYSTEM, dated 2005).
Like-named read-outs stand apart in the source and are kept apart here.

What was measured:
[1] = molecular target: Collagen type IV (CIV); assay: cell-based or functional assay
[2] = molecular target: Mouse laminin (isolated from the EHS-sarcoma) (mouse) (UniProt P19137); assay: cell-based or functional assay
[3] = molecular target: Bovine serum albumin (BSA) (bovine) (UniProt P02769); assay: cell-based or functional assay
[4] = molecular target: Collagen type IV (CIV); assay: cell-based or functional assay; remark: listed apart in the source
[5] = molecular target: Ace of E. faecalis strain OG1RF (native; on 46°C grown cells and in mutanolysin extracts) (Enterococcus faecalis strain OG1RF); assay: cell-based or functional assay
[6] = molecular target: Ace of E. faecalis strain OG1RF (native; on 46°C grown cells and in mutanolysin extracts) (Enterococcus faecalis strain OG1RF); assay: cell-based or functional assay; remark: listed apart in the source
[7] = molecular target: Ace of E. faecalis strain MC02152 (native; on cells and in mutanolysin extracts) (Enterococcus faecalis strain MC02152); assay: cell-based or functional assay
[8] = molecular target: Ace of E. faecalis strain V583 (native; on cells and in mutanolysin extracts) (Enterococcus faecalis strain V583); assay: cell-based or functional assay
[9] = molecular target: Collagen type I (CI); assay: ELISA, 10 µg immobilised CI, bound His-tagged Ace A detected with penta-His monoclonal antibody, OD450
[10] = molecular target: Mouse laminin (isolated from the EHS-sarcoma) (mouse) (UniProt P19137); assay: ELISA, 10 µg immobilised LN, bound His-tagged Ace A detected with penta-His monoclonal antibody, OD450
[11] = molecular target: Mouse laminin (isolated from the EHS-sarcoma) (mouse, UniProt P19137 25-3083; P02469 22-1786; P02468 34-1607); assay: cell-based or functional assay
[12] = molecular target: T1, Bovine Type I collagen (Collagen Corp.), immobilised on a CM5 chip (bovine, UniProt P02453 162-1217; P02465 80-1117); assay: SPR (BIAcore 1000), Scatchard analysis of equilibrium responses, 1-70 µM Ace A over immobilised collagen; three measurements
T1 construct: Bought, predissolved in 0.1 M HCl
T1 sequence (P02453 162-1217 limits assumed, chain 1 of 2): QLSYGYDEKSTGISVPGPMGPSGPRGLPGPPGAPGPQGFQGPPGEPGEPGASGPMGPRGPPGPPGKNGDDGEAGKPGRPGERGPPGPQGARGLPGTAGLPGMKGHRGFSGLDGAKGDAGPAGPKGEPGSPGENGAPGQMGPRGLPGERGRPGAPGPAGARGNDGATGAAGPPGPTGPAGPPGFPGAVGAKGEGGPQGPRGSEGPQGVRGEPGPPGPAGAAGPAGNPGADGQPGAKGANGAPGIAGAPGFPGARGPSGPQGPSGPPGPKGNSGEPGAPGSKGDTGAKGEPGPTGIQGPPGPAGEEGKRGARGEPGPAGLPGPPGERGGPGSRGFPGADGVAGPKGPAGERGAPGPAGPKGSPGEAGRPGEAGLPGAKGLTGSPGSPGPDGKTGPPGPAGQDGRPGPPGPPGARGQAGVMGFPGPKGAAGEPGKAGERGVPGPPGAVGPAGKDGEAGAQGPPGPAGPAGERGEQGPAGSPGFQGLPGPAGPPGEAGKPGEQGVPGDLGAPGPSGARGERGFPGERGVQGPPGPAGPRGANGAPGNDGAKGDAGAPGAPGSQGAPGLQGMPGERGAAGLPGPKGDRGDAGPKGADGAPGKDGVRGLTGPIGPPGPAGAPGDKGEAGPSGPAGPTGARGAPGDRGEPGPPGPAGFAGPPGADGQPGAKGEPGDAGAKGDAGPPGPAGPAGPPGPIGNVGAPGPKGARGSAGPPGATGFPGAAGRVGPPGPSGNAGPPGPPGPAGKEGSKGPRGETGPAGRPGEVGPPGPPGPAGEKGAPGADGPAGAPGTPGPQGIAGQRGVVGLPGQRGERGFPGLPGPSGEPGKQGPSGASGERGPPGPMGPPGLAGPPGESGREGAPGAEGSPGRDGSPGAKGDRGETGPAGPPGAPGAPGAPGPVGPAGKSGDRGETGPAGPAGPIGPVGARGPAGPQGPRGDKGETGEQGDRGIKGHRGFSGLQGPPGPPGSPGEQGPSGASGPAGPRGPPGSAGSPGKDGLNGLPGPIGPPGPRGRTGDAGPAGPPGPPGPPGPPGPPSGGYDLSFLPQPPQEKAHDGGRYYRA
T1 sequence (P02465 80-1117 limits assumed, chain 2 of 2): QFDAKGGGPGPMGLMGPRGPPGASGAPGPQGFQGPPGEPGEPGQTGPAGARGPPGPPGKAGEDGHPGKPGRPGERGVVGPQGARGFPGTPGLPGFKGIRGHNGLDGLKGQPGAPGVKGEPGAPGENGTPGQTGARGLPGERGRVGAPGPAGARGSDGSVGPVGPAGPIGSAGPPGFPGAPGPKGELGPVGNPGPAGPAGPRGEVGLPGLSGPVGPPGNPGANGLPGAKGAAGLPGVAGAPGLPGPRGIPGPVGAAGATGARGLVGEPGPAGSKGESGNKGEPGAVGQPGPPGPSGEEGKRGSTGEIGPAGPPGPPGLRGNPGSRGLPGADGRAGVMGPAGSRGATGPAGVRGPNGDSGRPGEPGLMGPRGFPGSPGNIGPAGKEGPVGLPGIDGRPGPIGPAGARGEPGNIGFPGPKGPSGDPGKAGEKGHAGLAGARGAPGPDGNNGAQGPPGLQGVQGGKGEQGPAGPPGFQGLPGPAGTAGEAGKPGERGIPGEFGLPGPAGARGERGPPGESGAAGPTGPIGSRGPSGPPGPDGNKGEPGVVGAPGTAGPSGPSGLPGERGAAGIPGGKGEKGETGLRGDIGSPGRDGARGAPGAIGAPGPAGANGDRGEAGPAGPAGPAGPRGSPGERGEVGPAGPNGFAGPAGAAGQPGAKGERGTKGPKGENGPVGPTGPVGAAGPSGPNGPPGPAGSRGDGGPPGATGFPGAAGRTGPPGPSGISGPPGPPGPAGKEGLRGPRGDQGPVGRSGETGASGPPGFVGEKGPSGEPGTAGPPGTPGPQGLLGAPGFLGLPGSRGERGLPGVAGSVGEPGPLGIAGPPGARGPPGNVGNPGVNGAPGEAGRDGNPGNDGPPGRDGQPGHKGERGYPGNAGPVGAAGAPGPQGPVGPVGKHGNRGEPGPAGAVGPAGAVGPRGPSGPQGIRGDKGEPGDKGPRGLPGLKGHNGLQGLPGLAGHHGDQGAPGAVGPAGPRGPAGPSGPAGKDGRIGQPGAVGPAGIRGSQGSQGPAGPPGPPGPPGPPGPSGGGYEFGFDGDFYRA

Bovine serum albumin (BSA) (bovine), sequence (P02769 25-607 limits assumed): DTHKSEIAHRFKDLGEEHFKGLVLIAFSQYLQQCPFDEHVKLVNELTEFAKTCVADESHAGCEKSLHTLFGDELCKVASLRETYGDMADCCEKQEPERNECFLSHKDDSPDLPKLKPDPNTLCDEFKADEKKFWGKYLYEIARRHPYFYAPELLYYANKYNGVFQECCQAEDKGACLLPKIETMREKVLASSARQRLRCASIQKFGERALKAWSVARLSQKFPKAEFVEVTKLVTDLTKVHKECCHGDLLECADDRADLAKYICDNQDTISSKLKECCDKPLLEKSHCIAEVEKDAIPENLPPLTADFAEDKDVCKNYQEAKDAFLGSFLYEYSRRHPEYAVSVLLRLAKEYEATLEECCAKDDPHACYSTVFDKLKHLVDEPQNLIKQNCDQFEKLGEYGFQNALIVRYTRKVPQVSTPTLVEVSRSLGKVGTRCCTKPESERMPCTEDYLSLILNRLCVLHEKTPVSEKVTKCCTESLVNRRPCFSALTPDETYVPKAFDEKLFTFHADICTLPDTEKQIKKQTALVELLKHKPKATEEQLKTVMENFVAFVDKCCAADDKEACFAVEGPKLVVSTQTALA

Ace of E. faecalis strain END6 (mutanolysin extract)
% adherence of 46°C grown END6 to CIV [1]: > 20%
% adherence of 46°C grown END6 to LN [2]: > 20%

Ace of E. faecalis strain JH2-2 (mutanolysin extract)
% adherence of 46°C grown JH2-2 to CIV [1]: > 20%
% adherence of 46°C grown JH2-2 to LN [2]: > 20%

Ace of E. faecalis strain MC02152 (native; on cells and in mutanolysin extracts)
% of MC02152 cells bound to BSA; no IgG (% of cells bound) [3]: 0.6
% adherence of 46°C grown MC02152 to CIV [1]: > 20%
% of 37°C grown MC02152 cells bound to CIV [1]: 8.9%
% of 46°C grown MC02152 cells bound to CIV [1]: 38%
% of MC02152 cells bound to CIV; no IgG (% of cells bound) [1]: 27.7
% adherence of 46°C grown MC02152 to LN [2]: > 20%
% of 37°C grown MC02152 cells bound to LN [2]: 7.1%
% of 46°C grown MC02152 cells bound to LN [2]: 41%
% of MC02152 cells bound to LN; no IgG (% of cells bound) [2]: 26.7

Ace of E. faecalis strain MD9 (mutanolysin extract)
% adherence of 46°C grown MD9 to CIV [1]: > 20%
% adherence of 46°C grown MD9 to LN [2]: > 20%

Ace of E. faecalis strain OG1RF (native; on 46°C grown cells and in mutanolysin extracts)
% of OG1RF cells bound to CIV; no IgG (% of cells bound) [4]: 29.6
% of OG1RF cells bound to CIV; no IgG (% of cells bound) [1]: 27.7
fold decrease of adherence to CIV in ace mutant TX5256 against OG1RF [1]: 27.4 fold

Ace of E. faecalis strain V583 (native; on cells and in mutanolysin extracts)
% of V583 cells bound to BSA; no IgG (% of cells bound) [3]: 0.7
% adherence of 46°C grown V583 to CIV [1]: > 20%
% of V583 cells bound to CIV; no IgG (% of cells bound) [1]: 38.1
% adherence of 46°C grown V583 to LN [2]: > 20%
% of V583 cells bound to LN; no IgG (% of cells bound) [2]: 29.4

IgGs purified from pooled normal human sera collected from healthy volunteers (antibody)
% of OG1RF cells bound to BSA; NHS IgG 0.1 mg/ml (% of cells bound) [5]: 0.9
% of OG1RF cells bound to BSA; NHS IgG 1 mg/ml (% of cells bound) [5]: 0.7
% of OG1RF cells bound to BSA; NHS IgG 2 mg/ml (% of cells bound) [5]: 0.7
% of OG1RF cells bound to BSA; NHS IgG 4 mg/ml (% of cells bound) [5]: 0.8
% of OG1RF cells bound to CIV; NHS IgG 0.1 mg/ml (% of cells bound) [5]: 24.8
% of OG1RF cells bound to CIV; NHS IgG 1 mg/ml (% of cells bound) [5]: 25.6
% of OG1RF cells bound to CIV; NHS IgG 2 mg/ml (% of cells bound) [5]: 24
% of OG1RF cells bound to CIV; NHS IgG 4 mg/ml (% of cells bound) [5]: 25.6
% of OG1RF cells bound to LN; NHS IgG 0.1 mg/ml (% of cells bound) [5]: 31.5
% of OG1RF cells bound to LN; NHS IgG 1 mg/ml (% of cells bound) [5]: 31.3
% of OG1RF cells bound to LN; NHS IgG 2 mg/ml (% of cells bound) [5]: 31.3
% of OG1RF cells bound to LN; NHS IgG 4 mg/ml (% of cells bound) [5]: 31.4

Preimmune rabbit serum and IgGs purified from it (Example 2) (antibody)
% of OG1RF cells bound to BSA; PI IgG 0.001 µg/ml (% of cells bound) [6]: 0.7
% of OG1RF cells bound to BSA; PI IgG 0.01 µg/ml (% of cells bound) [6]: 0.1
% of OG1RF cells bound to BSA; PI IgG 0.1 µg/ml (% of cells bound) [6]: 0.6
% of OG1RF cells bound to BSA; PI IgG 1 µg/ml (% of cells bound) [6]: 0.8
% of OG1RF cells bound to BSA; PI IgG 10 µg/ml (% of cells bound) [6]: 0.6
% of OG1RF cells bound to BSA; PI IgG 100 µg/ml (% of cells bound) [6]: 0.6
% of OG1RF cells bound to CIV; PI IgG 0.001 µg/ml (% of cells bound) [6]: 30.3
% of OG1RF cells bound to CIV; PI IgG 0.01 µg/ml (% of cells bound) [6]: 28.8
% of OG1RF cells bound to CIV; PI IgG 0.1 µg/ml (% of cells bound) [6]: 28.9
% of OG1RF cells bound to CIV; PI IgG 1 µg/ml (% of cells bound) [6]: 25.9
% of OG1RF cells bound to CIV; PI IgG 10 µg/ml (% of cells bound) [6]: 26.6
% of OG1RF cells bound to CIV; PI IgG 100 µg/ml (% of cells bound) [6]: 26
% of OG1RF cells bound to LN; PI IgG 0.001 µg/ml (% of cells bound) [6]: 30.2
% of OG1RF cells bound to LN; PI IgG 0.01 µg/ml (% of cells bound) [6]: 31.4
% of OG1RF cells bound to LN; PI IgG 0.1 µg/ml (% of cells bound) [6]: 29.1
% of OG1RF cells bound to LN; PI IgG 1 µg/ml (% of cells bound) [6]: 26.4
% of OG1RF cells bound to LN; PI IgG 10 µg/ml (% of cells bound) [6]: 28.3
% of OG1RF cells bound to LN; PI IgG 100 µg/ml (% of cells bound) [6]: 32
% of MC02152 cells bound to BSA; PI IgG 20 µg/ml (% of cells bound) [7]: 0.5
% of MC02152 cells bound to CIV; PI IgG 20 µg/ml (% of cells bound) [7]: 26.5
% of MC02152 cells bound to LN; PI IgG 20 µg/ml (% of cells bound) [7]: 23.5
% of V583 cells bound to BSA; PI IgG 20 µg/ml (% of cells bound) [8]: 0.6
% of V583 cells bound to CIV; PI IgG 20 µg/ml (% of cells bound) [8]: 33.6
% of V583 cells bound to LN; PI IgG 20 µg/ml (% of cells bound) [8]: 27.6

Recombinant Ace A domain of E. faecalis OG1RF (His-tagged, pBAD/HisA, TX5254)
EC50 (read off the curve) [9]: 10 µM
EC50 (read off the curve) [10]: 7 µM

B1: Ace of E. faecalis strain OG1RF (native; on 46°C grown cells and in mutanolysin extracts) (other)
chain: ELSKSSIVDKVELDHTTLYQGEMTSIKVSFSDKENQKIKPGDTITLTLPDALVGMTENDGSPRKINLNGLGEVFIYKDHVVATFNEKVESLHNVNGHFSFGIKTLITNSSQPNVIETDFGTATATQRLTIEGVTNTETGQIERDYPFFYKVGDLAGESNQVRWFLNVNLNKSDVTEDISIADRQGSGQQLNKESFTFDIVNDKETKYISLAEFEQQGYGKIDFVTDNDFNLRFYRNKARFTSFIVRYTSTITEAGQHQATFENSYDINYQLNNQDATNEKNTSQVKNVFVEGEASGNQNVEMPTEESLDIPLETIDEWEPKTPTSEQATETSEKTGATETAESSQPEVHVSPTEEENPDEGGTLGTIEPIIPEKPSVTTEENGVTETAEGSQPEVHVSPTEEENPDESETLGTITPIIPEKPSVTTEENGVTETAEGSQPEVHVSPTEEENPDESETLGTITPIIPEKPSVTTEENGATETAESSQPEVHVSPAEEENPDESETLGTITPIIPEKPSVTTEENGTTETAESSQPEVHVSPTEEENLDESETLGTIEPIIPEKPSVTTEENGTTETAESSQPEVHVSPTKEITTTEKKQPSTETTVEKNKNVTSKNQPQILNAPLNTVKNEGSPQLAPQLLSEPIQKLNEANGQRELPKT
fold decrease of adherence to LN in ace mutant TX5256 against OG1RF [11]: 32.9 fold

B2: Recombinant E. faecalis EF1 Ace A domain (N-terminal His6-tag fusion, from pQE-30) (other)
chain: MRGSHHHHHHGSELSKSSIVDKVELDHTTLYQGEMTSIKVSFSDKENQKIKPGDTITLTLPDELVGMTENDGSPRKINLNGLGEVFIYKDHVVATFNEKVESLHNVNGHFSFGIKTLITNSSQPNVIETDFGTATATQRLTIEGVTNTETGQIERDYPFFYKVGDLAGESNQVRWFLNVNLNKSDVTEDISIADRQGSGQQLNKESFTFDIVNDKETKYISLAEFEQQGYGKIDFVTDNDFNLRFYRDKARFTSFIVRYTSTITEAGQHQATFENSYDINYQLNNQDATNEKNTSQVKNVFVEGEASGNQNVEMPTEESLDIPLETIEEWEPKTPTSEQATETSEKTD
notes: Residues 32-367 are counted from nucleotides 94-1101; also called recombinant Ace A domain
Kd [12]: 48 µM
